# Test results as given in the Immune Epitope Database (IEDB).
# pKd: −log10 of the molar value.
# Experiments:
# [1] = molecular target: HLA-B*40:01; assay: IEDB peptide-MHC binding, purified MHC/competitive/radioactivity; filed as Kd, often an IC50 or EC50 that approximates it; ≥ and ≤ were set here for values at or beyond the usual limits of such assays
# [2] = molecular target: HLA-B*45:01; assay: as above
# [3] = molecular target: HLA-B*40:02; assay: as above
# [4] = molecular target: HLA-B*44:03; assay: as above
# [5] = molecular target: HLA-B*18:01; assay: as above
# [6] = molecular target: HLA-B*44:02; assay: as above
# [7] = molecular target: HLA-A*33:01; assay: as above; conditions: source organism: Dengue virus 2 Jamaica/1409/1983
# [8] = molecular target: HLA-B*35:01; assay: as above
# [9] = molecular target: HLA-A*68:01; assay: as above
# [10] = molecular target: HLA-B*27:03; assay: IEDB peptide-MHC binding, purified MHC/competitive/fluorescence; filed as Kd, often an IC50 or EC50 that approximates it; ≥ and ≤ were set here for values at or beyond the usual limits of such assays
# [11] = molecular target: HLA-B*18:01; assay: as above
# [12] = molecular target: HLA-A*02:01; assay: as above; conditions: source organism: Homo sapiens
# [13] = molecular target: HLA-B*07:02; assay: IEDB peptide-MHC binding, purified MHC/direct/fluorescence; filed as Kd, often an IC50 or EC50 that approximates it; ≥ and ≤ were set here for values at or beyond the usual limits of such assays
# [14] = molecular target: HLA-B*51:01; assay: IEDB peptide-MHC binding, purified MHC/competitive/fluorescence; filed as Kd, often an IC50 or EC50 that approximates it; ≥ and ≤ were set here for values at or beyond the usual limits of such assays; conditions: source organism: Zaire ebolavirus
# [15] = molecular target: HLA-B*15:17; assay: as above; conditions: source organism: Zaire ebolavirus
# [16] = molecular target: HLA-B*46:01; assay: as above; conditions: source organism: Zaire ebolavirus
# [17] = molecular target: HLA-B*15:01; assay: as above; conditions: source organism: Zaire ebolavirus
# [18] = molecular target: HLA-B*39:01; assay: as above; conditions: source organism: Zaire ebolavirus
# [19] = molecular target: HLA-A*69:01; assay: as above; conditions: source organism: Zaire ebolavirus
# [20] = molecular target: HLA-B*57:01; assay: as above; conditions: source organism: Zaire ebolavirus
# [21] = molecular target: HLA-A*24:03; assay: IEDB peptide-MHC binding, purified MHC/direct/fluorescence; filed as Kd, often an IC50 or EC50 that approximates it; ≥ and ≤ were set here for values at or beyond the usual limits of such assays
# [22] = molecular target: HLA-A*02:01; assay: as above
# [23] = molecular target: HLA-A*03:01; assay: as above
# [24] = molecular target: HLA-B*51:01; assay: IEDB peptide-MHC binding, purified MHC/competitive/radioactivity; filed as Kd, often an IC50 or EC50 that approximates it; ≥ and ≤ were set here for values at or beyond the usual limits of such assays
# [25] = molecular target: HLA-B*53:01; assay: as above
# [26] = molecular target: HLA-B*07:02; assay: as above
# [27] = molecular target: HLA-B*40:01; assay: IEDB peptide-MHC binding, purified MHC/direct/fluorescence; filed as Kd, often an IC50 or EC50 that approximates it; ≥ and ≤ were set here for values at or beyond the usual limits of such assays
# [28] = molecular target: HLA-B*18:01; assay: as above; conditions: source organism: Orthohantavirus hantanense
# [29] = molecular target: HLA-B*44:02; assay: as above
# [30] = molecular target: HLA-A*02:12; assay: as above; conditions: source organism: Mycobacterium tuberculosis str. Haarlem
# [31] = molecular target: HLA-A*30:02; assay: IEDB peptide-MHC binding, purified MHC/competitive/radioactivity; filed as Kd, often an IC50 or EC50 that approximates it; ≥ and ≤ were set here for values at or beyond the usual limits of such assays; conditions: source organism: Dengue virus 4 Philippines/H241/1956
# [32] = molecular target: HLA-B*08:01; assay: IEDB peptide-MHC binding, purified MHC/direct/fluorescence; filed as Kd, often an IC50 or EC50 that approximates it; ≥ and ≤ were set here for values at or beyond the usual limits of such assays; conditions: source organism: Coxiella burnetii
# [33] = molecular target: HLA-B*27:05; assay: as above; conditions: source organism: Coxiella burnetii
# [34] = molecular target: HLA-A*11:01; assay: as above; conditions: source organism: Coxiella burnetii
# [35] = molecular target: HLA-B*58:01; assay: as above; conditions: source organism: Coxiella burnetii
# [36] = molecular target: HLA-A*26:01; assay: as above; conditions: source organism: Coxiella burnetii
# [37] = molecular target: HLA-B*15:01; assay: as above; conditions: source organism: Coxiella burnetii
# [38] = molecular target: HLA-A*01:01; assay: as above; conditions: source organism: Coxiella burnetii
# [39] = molecular target: HLA-A*69:01; assay: as above; conditions: source organism: Coxiella burnetii
# [40] = source organism: Mammarenavirus guanaritoense
# [41] = source organism: Mammarenavirus machupoense
# [42] = source organism: SARS coronavirus Tor2
# [43] = source organism: Mammarenavirus choriomeningitidis
# [44] = source organism: Dengue virus 2 Jamaica/1409/1983
# [45] = source organism: Dengue virus 3 Sri Lanka/1266/2000
# [46] = source organism: Zaire ebolavirus
# [47] = source organism: Dengue virus 1 Brazil/97-11/1997
# [48] = source organism: Dengue virus 4 Philippines/H241/1956
# [49] = source organism: Orthohantavirus hantanense
# [50] = source organism: Dengue virus 3 Martinique/1243/1999
# [51] = source organism: Coxiella burnetii
sequence,measurement,setting,value
ADSEITETY,pKd,[1]; [40],≤ 4.42
same,pKd,[2]; [40],4.77
same,pKd,[3]; [40],≤ 4.11
same,pKd,[4]; [40],5.56
same,pKd,[5]; [40],5.86
same,pKd,[6]; [40],5.18
AEWLEMICF,pKd,[1]; [41],5.70
same,pKd,[2]; [41],7.08
same,pKd,[3]; [41],7.71
same,pKd,[4]; [41],7.17
same,pKd,[5]; [41],6.79
same,pKd,[6]; [41],7.35
EEVVENPTI,pKd,[1]; [42],5.56
same,pKd,[2]; [42],5.91
same,pKd,[3]; [42],5.31
same,pKd,[4]; [42],6.11
same,pKd,[5]; [42],≤ 4.34
same,pKd,[6]; [42],5.34
FEDQFLPFMS,pKd,[1]; [43],5.41
same,pKd,[2]; [43],5.46
same,pKd,[3]; [43],6.51
same,pKd,[4]; [43],≤ 4.57
same,pKd,[5]; [43],5.62
same,pKd,[6]; [43],4.84
FENKTTLPV,pKd,[1]; [42],6.94
same,pKd,[2]; [42],6.07
same,pKd,[3]; [42],7.60
same,pKd,[4]; [42],5.73
same,pKd,[5]; [42],6.18
same,pKd,[6]; [42],4.77
FTNMEAQLIR,pKd,[7],6.97
same,pKd,[8]; [44],5.01
same,pKd,[9]; [44],7.71
FTNMEAQLVR,pKd,[8]; [45],4.93
same,pKd,[9]; [45],7.10
GEDTVWEVQG,pKd,[1]; [42],≤ 4.53
same,pKd,[2]; [42],5.39
same,pKd,[3]; [42],4.74
same,pKd,[4]; [42],4.79
same,pKd,[5]; [42],≤ 4.15
same,pKd,[6]; [42],≤ 4.35
GVRQFSGWM,pKd,[10]; source organism: Homo sapiens,≤ 4.70
same,pKd,[11]; source organism: Homo sapiens,≤ 4.70
same,pKd,[12],≤ 4.70
same,pKd,[13]; source organism: Homo sapiens,7.66
IDFLIMRNL,pKd,[1]; [40],4.81
same,pKd,[2]; [40],4.74
same,pKd,[3]; [40],6.65
same,pKd,[4]; [40],4.79
same,pKd,[5]; [40],4.82
same,pKd,[6]; [40],4.84
KEINLLSQT,pKd,[1]; [41],≤ 4.47
same,pKd,[2]; [41],5.17
same,pKd,[3]; [41],7.51
same,pKd,[4]; [41],4.84
same,pKd,[5]; [41],≤ 4.11
same,pKd,[6]; [41],4.77
KLINTLFHA,pKd,[14],≤ 4.70
same,pKd,[10]; [46],≤ 4.70
same,pKd,[15],≤ 4.70
same,pKd,[11]; [46],≤ 4.70
same,pKd,[16],≤ 4.70
same,pKd,[17],≤ 4.70
same,pKd,[18],≤ 4.70
same,pKd,[19],≤ 4.70
same,pKd,[20],≤ 4.70
same,pKd,[21]; [46],≤ 4.70
same,pKd,[22]; source organism: Sudan ebolavirus - Maleo (1979),8.33
same,pKd,[23]; [46],≤ 4.70
LALMATFKM,pKd,[8]; [47],6.96
LPAALAFHL,pKd,[24]; [45],6.08
same,pKd,[25]; [45],7.97
same,pKd,[26]; [45],7.14
NPWMEDKTPV,pKd,[26]; [44],7.25
QPQWIAASII,pKd,[24]; [48],6.14
same,pKd,[26]; [48],6.54
RELGLDISL,pKd,[27]; [49],8.92
same,pKd,[28],8.57
same,pKd,[29]; [49],5.48
RPASAWTLY,pKd,[25]; [44],7.06
same,pKd,[8]; [44],7.08
RPGYHTQTA,pKd,[26]; [44],8.02
RPTPKGTVMD,pKd,[26]; source organism: Dengue virus 3 Singapore/8120/1995,7.21
SPKRLSAAIG,pKd,[26]; [47],6.90
TPFAEYTNSV,pKd,[24]; [48],6.09
same,pKd,[26]; [48],7.14
TPRGTVMDII,pKd,[24]; [44],5.62
same,pKd,[26]; [44],8.21
VPMSTYGWNI,pKd,[24]; [50],7.04
same,pKd,[25]; [50],7.35
same,pKd,[26]; [50],7.22
WHYDDENPY,pKd,[8]; [50],5.58
WLSQTTLSV,pKd,[30],8.52
YAGPFSQHNY,pKd,[8]; [48],6.95
same,pKd,[31],7.83
YAQMWQLMYF,pKd,[24]; [47],4.71
same,pKd,[25]; [47],7.09
same,pKd,[8]; [47],6.02
YYYNFSEDL,pKd,[27]; [51],≤ 4.70
same,pKd,[32],≤ 4.70
same,pKd,[21]; [51],8.98
same,pKd,[33],≤ 4.70
same,pKd,[34],≤ 4.70
same,pKd,[35],≤ 4.70
same,pKd,[22]; [51],≤ 4.70
same,pKd,[36],≤ 4.70
same,pKd,[37],≤ 4.70
same,pKd,[38],≤ 4.70
same,pKd,[29]; [51],≤ 4.70
same,pKd,[23]; [51],≤ 4.70
same,pKd,[39],≤ 4.70
same,pKd,[13]; [51],≤ 4.70
